According to patent US20120141456A1 (Biogen, published 2012):
Substitutions are numbered along the chain they refer to.

T1: full-length human DR6 on transfected cells (human, UniProt O75509 42-655)
T1 construct: also called Death Receptor-6; TNFRSF21
T1 sequence: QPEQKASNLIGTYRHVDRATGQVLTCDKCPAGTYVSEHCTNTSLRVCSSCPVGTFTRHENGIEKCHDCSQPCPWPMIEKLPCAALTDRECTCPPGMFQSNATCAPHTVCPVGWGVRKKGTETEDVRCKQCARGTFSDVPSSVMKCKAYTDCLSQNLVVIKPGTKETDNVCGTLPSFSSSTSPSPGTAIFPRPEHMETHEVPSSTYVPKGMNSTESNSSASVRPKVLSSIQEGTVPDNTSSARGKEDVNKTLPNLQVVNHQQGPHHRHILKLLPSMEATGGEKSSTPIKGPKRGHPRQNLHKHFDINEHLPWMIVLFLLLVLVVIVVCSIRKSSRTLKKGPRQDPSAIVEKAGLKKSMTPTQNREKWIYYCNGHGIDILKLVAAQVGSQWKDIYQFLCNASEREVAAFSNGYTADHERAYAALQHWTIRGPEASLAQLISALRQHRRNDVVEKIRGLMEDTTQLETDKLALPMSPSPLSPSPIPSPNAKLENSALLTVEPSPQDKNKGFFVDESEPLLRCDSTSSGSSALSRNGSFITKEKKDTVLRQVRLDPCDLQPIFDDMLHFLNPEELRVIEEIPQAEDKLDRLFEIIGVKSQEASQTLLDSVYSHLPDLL

T2: full-length rat DR6 on transfected cells (rat, UniProt D3ZF92 42-655)
T2 construct: whole, on cells
T2 sequence (looked up): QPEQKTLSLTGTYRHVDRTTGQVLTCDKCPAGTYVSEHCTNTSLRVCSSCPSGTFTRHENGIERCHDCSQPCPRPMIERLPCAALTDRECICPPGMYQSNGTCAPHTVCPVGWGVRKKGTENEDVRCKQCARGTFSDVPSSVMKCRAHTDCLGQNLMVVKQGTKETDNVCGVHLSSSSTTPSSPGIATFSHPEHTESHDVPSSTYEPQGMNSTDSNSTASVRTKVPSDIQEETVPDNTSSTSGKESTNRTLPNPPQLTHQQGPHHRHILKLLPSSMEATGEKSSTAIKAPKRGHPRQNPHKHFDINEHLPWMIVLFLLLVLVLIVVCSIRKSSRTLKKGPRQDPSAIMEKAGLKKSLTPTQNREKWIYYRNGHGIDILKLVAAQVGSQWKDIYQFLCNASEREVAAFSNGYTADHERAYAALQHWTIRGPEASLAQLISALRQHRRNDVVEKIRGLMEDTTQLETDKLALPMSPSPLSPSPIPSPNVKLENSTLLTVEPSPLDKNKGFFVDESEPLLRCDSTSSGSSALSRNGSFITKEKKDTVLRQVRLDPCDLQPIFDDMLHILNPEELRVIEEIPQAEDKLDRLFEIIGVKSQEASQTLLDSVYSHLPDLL

T3: full-length mouse DR6 on transfected cells (mouse, UniProt Q9EPU5 42-655)
T3 sequence: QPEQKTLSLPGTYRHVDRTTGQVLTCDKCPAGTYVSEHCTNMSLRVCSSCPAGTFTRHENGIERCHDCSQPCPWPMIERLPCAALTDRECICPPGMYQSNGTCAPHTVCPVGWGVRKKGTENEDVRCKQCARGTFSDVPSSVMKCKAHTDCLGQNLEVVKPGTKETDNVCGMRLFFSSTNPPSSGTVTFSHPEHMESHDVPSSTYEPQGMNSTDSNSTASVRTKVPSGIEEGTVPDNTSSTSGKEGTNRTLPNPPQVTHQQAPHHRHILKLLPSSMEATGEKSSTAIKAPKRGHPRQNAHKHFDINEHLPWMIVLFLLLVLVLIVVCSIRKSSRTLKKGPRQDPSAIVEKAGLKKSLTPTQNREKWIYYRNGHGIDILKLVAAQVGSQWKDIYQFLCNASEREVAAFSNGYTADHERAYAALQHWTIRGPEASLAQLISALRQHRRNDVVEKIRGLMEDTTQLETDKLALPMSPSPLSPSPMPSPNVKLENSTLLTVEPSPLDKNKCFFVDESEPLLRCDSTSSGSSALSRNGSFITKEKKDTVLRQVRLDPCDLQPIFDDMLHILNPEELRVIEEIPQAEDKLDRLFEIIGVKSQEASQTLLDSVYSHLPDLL

B1: M53-E04 (Fab, V domains shown)
VH: EVQLLESGGGLVQPGGSLRLSCAASGFTFSNYEMSWVRQAPGKGLEWVSSIYSSGGETLYADSVKGRFTISRDNSKNTLYLQMNSLRAEDTAVYYCARDGAADYWGQGTLVTVSS
VL: QSELTQPPSASGTPGQWVTISCSGSTSNIGNNYVYWYQQLPGTAPKLLIYTNNQRPSGVPDRFSGSKSGTSASLAISGLRSEDEADYYCATWDDSLYAPVFGGGTKVTVL
notes: Human Fab from a phage display library
B2: M67-G02 (Fab, V domains shown)
VH: EVQLLESGGGLVQPGGSLRLSCAASGFTFSRYSMQWVRQAPGKGLEWVSVISPSGGSTMYADSVKGRFTISRDNSKNTLYLQMNSLRAEDTAVYYCARESYSSSWYSGYYYYYGMDVWGQGTTVTVSS
VL: DIQMTQSPASLSASVGDRVTITCRASQTIAGYLNWYQQTPGKAPNLLIYDASRLQSGVPSRFSGSGSGTDFTLSISGLQPEDFGTYYCQQSYTIPLTFGGGTKVEIK
notes: as for B1
B3: M51-H09 (Fab, V domains shown)
VH: EVQLLESGGGLVQPGGSLRLSCAASGFTFSPYSMTWVRQAPGKGLEWVSSIVPSGGKTWYADSVKGRFTISRDNSKNTLYLQMNSLRAEDTAVYYCARTNLSYFDYWGQGTLVTVSS
VL: QSELTQPPSASGSPGQSVTISCTGTSNDVGSYNYISWFQQHPGKAPKLMIYEVNKRPSGVPDRFSGSKSDNTASLTVSGLQAEDEADYYCTSYAGSHKWVFGGGTKLTVL
notes: as for B1
B4: 1P5D10.2 (antibody, V domains shown)
VH: EVQLVESGGGLVKPGGSLKLSCAASGFTFSDYYMYWVRQTPEKRLEWVATISDGGLYTYYQDSVKGRFTISRDNAKNNLYLQMSSLKSEDTAMYYCAREDDYDGDFYTMDYWGQGTSVTVSS
VL: QIVLTQSPAIMSASPGEKVTITCSASSSVSYMHWFQQKPGTSPKLWIYSTSNLASGVPARFSGSGSGTSYSLTISRMEAEDAATYYCQQRSSYPLTFGAGTKLELK
notes: Murine hybridoma monoclonal antibody; subgroup III(D) heavy chain, subgroup VI kappa light chain
B5: M50-H01 (Fab, V domains shown)
VH: EVQLLESGGGLVQPGGSLRLSCAASGFTFSDYPMMWVRQAPGKGLEWVSRISPSGGHTIYADSVKGRFTISRDNSKNTLYLQMNSLRAEDTAVYYCAKDWHGGGAFDIWGQGTMVTVSS
VL: DIQMTQSPSSVSASVGDRVTITCRASQGIRSWLAWYQQKPGKAPKLLIYDASTLQSGVPSRFRGGGSGTDFTLTISSLQPEDFATYYCQQSYSTPLTFGGGTKVEIK
notes: as for B1
B6: M66-B03 (Fab, V domains shown)
VH: EVQLLESGGGLVQPGGSLRLSCAASGFTFSPYWMSWVRQAPGKGLEWVSVIYPSGGHTYYADSVKGRFTISRDNSKNTLYLQMNSLRAEDTAVYYCARPGFGAAFDYWGPGTLVTVSS
VL: B5 VL with R30S, D50A, T53S, R63S, G65S, S91A, Y92N, T94F
B7: M62-B02 (Fab, V domains shown)
VH: EVQLLESGGGLVQPGGSLRLSCAASGFTFSMYIMNWVRQAPGKGLEWVSSIVSSGGWTFYADSVKGRFTISRDNSKNTLYLQMNSLRAEDTAVYYCARGHYGMDVWGQGTTVTVSS
VL: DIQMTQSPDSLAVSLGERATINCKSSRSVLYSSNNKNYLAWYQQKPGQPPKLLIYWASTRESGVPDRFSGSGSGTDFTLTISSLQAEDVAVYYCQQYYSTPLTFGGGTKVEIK
notes: as for B1
B8: M72-F03 (Fab, V domains shown)
VH: B7 VH with M31Q, I33M, N35S, S50V, V52Y, S53P, W57S, F59H
VL: DIQMTQSPDSLAVSLGERATINCKSSQSVLYSSNNKNYLAWYQHKAGQPPKLLIHWASSRASGVPDRFSGSGSGTDFTLTISSLQAEDVAVYYCQQFYSLPLTFGGGTKVEIR
notes: as for B1
B9: M53-F04 (Fab, V domains shown)
VH: EVQLLESGGGLVQPGGSLRLSCAASGFTFSEYTMHWVRQAPGKGLEWVSVISSSGGRTVYADSVKGRFTISRDNSKNTLYLQMNSLRAEDTAVYYCARDLSNYMDYWGQGTLVTVSS
VL: DIQMTQSPATLSLSPGERATLSCRASQTVSNYLAWYQQKPGQAPRLLIYDASNRATGIPARFSGSGSGTDFTLTISSLEPEDFAVYYCQQRSKWLSFGGGTKVEIK
notes: as for B1
B10: M63-E10 (Fab, V domains shown)
VH: EVQLLESGGGLVQPGGSLRLSCAASGFTFSQYKMSWVRQAPGKGLEWVSSISSSGGTNYADSVKGRFTISRDNSKNTLYLQMNSLRAEDTAMYYCARRNYGDRPYWYFDLWGRGTLVTVSS
VL: DIQMTQSPSTLSASVGDRVTITCRASQTISRWLAWYQHKPGKAPKLLIYKTSNLESGVPSRFSGSGSGTEFTLTISSLQPDDFATYYCQQYKSYSITFGPGTKVDIK
notes: as for B1
B11: 1P2F2.1 (antibody, V domains shown)
VH: QVQLQQSGPEVARPGASVKLSCKASGYTFTDYYLNWVKQRTGQGLEWIGEIYPGNNHTYYNEKFKGKATLTADNSSSTAYLQFSSLTSEDSAVYFCTRGVIKWGQGTLVTVSV
VL: DILMTQSPSSMSVSLGDTVSITCHASQGIRNSIGWLQQKPGKSFKGLIYHATTLEDGVPSRFTGSGSGADFSLTISSLESEDFADYYCVQYAQFPYTFGGGTKLEIK
notes: Murine hybridoma monoclonal antibody; subgroup II(A) heavy chain, subgroup V kappa light chain
B12: M73-C04 (Fab, V domains shown)
VH: EVQLLESGGGLVQPGGSLRLSCAASGFTFSPYAMVWVRQAPGKGLEWVSSISPSGGGTGYADSVKGRFTISRDNSKNTLYLQMNSLRAEDTAVYYCAREGWNYYYGMDVWGQGTTVTVSS
VL: DIQMTQSPATLSLSPGERATLSCRASQSVSSYLAWYQQKPGQAPRLLIYDASNRATGIPARFSGSGSGTDFTLAISSLQPEDSATYYCLQDFIYPYTFGQGTKLEIR
notes: as for B1

Assays:
[1] = target: T1, full-length human DR6 on transfected …; test: FACS on 293E cells transfected with full-length human DR6
[2] = target: T1, full-length human DR6 on transfected …; test: FACS on HEK293 cells transfected with full length human DR6, serial dilutions of antibody
Description: (§1) Six million HEK293 cells were transfected with 10 ug of plasmid DNA, which encoded full length human, rat, or mouse DR6. Three days after transfection, approximately 50,000 cells in 200 μL of PBS, 1% BSA, 0.1% NaN3 (FACS buffer) were analyzed. Cells were pelleted and resuspended in 150 μl of serial dilutions of anti-DR6 antibodies in FACS buffer. Samples were incubated for 1 hour on ice with occasional agitation and then washed three times. Bound DR6 antibody was visualized with PE-labeled goat F(ab)₂ anti-human Fab (for Dyax Fabs) or anti-mouse IgG specific antibody (for monoclonal antibodies) (Jackson Labs).

[3] = target: T2, full-length rat DR6 on transfected cells; test: FACS on HEK293 cells transfected with full length rat DR6, serial dilutions of antibody
Description: as §1

[4] = target: T3, full-length mouse DR6 on transfected …; test: FACS on HEK293 cells transfected with full length mouse DR6, serial dilutions of antibody
Description: as §1

[5] = target: T3, full-length mouse DR6 on transfected …; test: FACS on 293T cells transfected with mouse DR6 (FIG. 13C)
Description: as §1

[6] = target: T1, full-length human DR6 on transfected …; test: FACS on 293T cells transfected with human DR6 (FIG. 13B)
Description: as §1

[7] = target: T2, full-length rat DR6 on transfected cells; test: FACS on 293T cells transfected with rat DR6 (FIG. 13A)
Description: as §1

Binder | binding result [1] | further results
B1 | binds | –
B2 | binds | –
B3 | binds | –
B4 | – | binding result [2]: binds; binding result [3]: binds; binding result [4]: binds
B5 | binds | –
B6 | binds | –
B7 | binds | –
B8 | binds | –
B9 | binds | –
B10 | binds | –
B11 | – | binding result [5]: binds; binding result [6]: binds; binding result [7]: binds
B12 | binds | –
